According to US20180037622A1:
Where two headings read alike, the source gives them in different places. One block for each binder: values may come before it.

Legend:
Test in all cases: cell-based or functional assay
Activin A [1] = molecular target: T1, Activin A (UniProt P08476)
T1 sequence (looked up): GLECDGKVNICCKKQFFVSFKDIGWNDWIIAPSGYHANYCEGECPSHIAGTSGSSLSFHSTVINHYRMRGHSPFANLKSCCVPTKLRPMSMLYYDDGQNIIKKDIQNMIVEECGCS

[2] = molecular target: T2, Growth and Differentiation Factor-11 (GDF11) (UniProt O95390)
T2 sequence (looked up): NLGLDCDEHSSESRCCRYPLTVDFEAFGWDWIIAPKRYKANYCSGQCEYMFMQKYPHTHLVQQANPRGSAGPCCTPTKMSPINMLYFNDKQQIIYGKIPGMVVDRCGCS

Activin A [3] = molecular target: T1, Activin A; remark: listed apart in the source
[4] = molecular target: T2, Growth and Differentiation Factor-11 (GDF11); remark: listed apart in the source

IC50 (Activin A [1]): 0.032 µg/mL
IC50 [2]: 0.087 µg/mL
B1: ActRIIB(20-132)-hFc (Fc fusion, not shown: a dimerising Fc or GST)
chain: GRGEAETRECIYYNANWELERTNQSGLERCEGEQDKRLHCYASWRNSSGTIELVKKGCWLDDFNCYDRQECVATEENPQVYFCCCEGNFCNERFTHLPEAGGPEVTYEPPPTA

IC50 (Activin A [1]): 0.044 µg/mL
IC50 [2]: 0.12 µg/mL
IC50 (Activin A [3]): 0.201 µg/mL
IC50 [4]: 0.183 µg/mL
B2: ActRIIB(20-131)-hFc (Fc fusion, not shown: a dimerising Fc or GST)
chain: GRGEAETRECIYYNANWELERTNQSGLERCEGEQDKRLHCYASWRNSSGTIELVKKGCWLDDFNCYDRQECVATEENPQVYFCCCEGNFCNERFTHLPEAGGPEVTYEPPPT

IC50 (Activin A [3]): 0.043 µg/mL
IC50 [4]: 0.06 µg/mL
B3: ActRIIB(23-131)-hFc (Fc fusion, not shown: a dimerising Fc or GST)
chain: EAETRECIYYNANWELERTNQSGLERCEGEQDKRLHCYASWRNSSGTIELVKKGCWLDDFNCYDRQECVATEENPQVYFCCCEGNFCNERFTHLPEAGGPEVTYEPPPT

Activin Inhibition Activity (KI) (Activin A [1]): 1000 nM
GDF11 Inhibition Activity (KI) [2]: 1000 nM
B4: ActRIIB-Fc A64 20-134 (Fc fusion, not shown: a dimerising Fc or GST)
chain: GRGEAETRECIYYNANWELERTNQSGLERCEGEQDKRLHCYASWANSSGTIELVKKGCWLDDFNCYDRQECVATEENPQVYFCCCEGNFCNERFTHLPEAGGPEVTYEPPPTAPT

IC50 (Activin A [3]): 0.105 µg/mL
IC50 [4]: 0.069 µg/mL
B5: ActRIIB(24-131)-hFc (Fc fusion, not shown: a dimerising Fc or GST)
chain: AETRECIYYNANWELERTNQSGLERCEGEQDKRLHCYASWRNSSGTIELVKKGCWLDDFNCYDRQECVATEENPQVYFCCCEGNFCNERFTHLPEAGGPEVTYEPPPT

IC50 (Activin A [3]): 0.1 µg/mL
IC50 [4]: 0.071 µg/mL
B6: ActRIIB(22-131)-hFc (Fc fusion, not shown: a dimerising Fc or GST)
chain: GEAETRECIYYNANWELERTNQSGLERCEGEQDKRLHCYASWRNSSGTIELVKKGCWLDDFNCYDRQECVATEENPQVYFCCCEGNFCNERFTHLPEAGGPEVTYEPPPT

IC50 (Activin A [3]): 0.325 µg/mL
IC50 [4]: 0.121 µg/mL
B7: ActRIIB(21-131)-hFc (Fc fusion, not shown: a dimerising Fc or GST)
chain: RGEAETRECIYYNANWELERTNQSGLERCEGEQDKRLHCYASWRNSSGTIELVKKGCWLDDFNCYDRQECVATEENPQVYFCCCEGNFCNERFTHLPEAGGPEVTYEPPPT

IC50 (Activin A [1]): 0.158 µg/mL
IC50 [2]: 0.13 µg/mL
B8: ActRIIB(20-128)-hFc (Fc fusion, not shown: a dimerising Fc or GST)
chain: GRGEAETRECIYYNANWELERTNQSGLERCEGEQDKRLHCYASWRNSSGTIELVKKGCWLDDFNCYDRQECVATEENPQVYFCCCEGNFCNERFTHLPEAGGPEVTYEP
